Key:
[1] = biological target: T1, SRC (SRC Proto-Oncogene, Non-Receptor Tyrosine Kinase) (human, UniProt P12931 2-536); experiment: co-immunoprecipitation with anti-SRC antibody from T47D cells expressing wtCCDC170, western blot with anti-CCDC170 antibody
T1 construct: Endogenous protein of T47D cells, in cell lysate

[2] = biological target: T2, HER2 (Erb-B2 Receptor Tyrosine Kinase 2) (human, UniProt P04626 23-1255); experiment: co-immunoprecipitation with anti-HER2 antibody from T47D cells expressing wtCCDC170, western blot with anti-CCDC170 antibody
T2 construct: Endogenous protein of T47D cells, in cell lysate; also called HER2/neu

[3] = biological target: T3, HER3 (Erb-B2 Receptor Tyrosine Kinase 3) (human, UniProt P21860 20-1342); experiment: co-immunoprecipitation with anti-HER3 antibody from T47D cells expressing wtCCDC170, western blot with anti-CCDC170 antibody
T3 construct: Endogenous protein of T47D cells, in cell lysate; also called ErbB3
T3 sequence (P21860 20-1342 limits assumed): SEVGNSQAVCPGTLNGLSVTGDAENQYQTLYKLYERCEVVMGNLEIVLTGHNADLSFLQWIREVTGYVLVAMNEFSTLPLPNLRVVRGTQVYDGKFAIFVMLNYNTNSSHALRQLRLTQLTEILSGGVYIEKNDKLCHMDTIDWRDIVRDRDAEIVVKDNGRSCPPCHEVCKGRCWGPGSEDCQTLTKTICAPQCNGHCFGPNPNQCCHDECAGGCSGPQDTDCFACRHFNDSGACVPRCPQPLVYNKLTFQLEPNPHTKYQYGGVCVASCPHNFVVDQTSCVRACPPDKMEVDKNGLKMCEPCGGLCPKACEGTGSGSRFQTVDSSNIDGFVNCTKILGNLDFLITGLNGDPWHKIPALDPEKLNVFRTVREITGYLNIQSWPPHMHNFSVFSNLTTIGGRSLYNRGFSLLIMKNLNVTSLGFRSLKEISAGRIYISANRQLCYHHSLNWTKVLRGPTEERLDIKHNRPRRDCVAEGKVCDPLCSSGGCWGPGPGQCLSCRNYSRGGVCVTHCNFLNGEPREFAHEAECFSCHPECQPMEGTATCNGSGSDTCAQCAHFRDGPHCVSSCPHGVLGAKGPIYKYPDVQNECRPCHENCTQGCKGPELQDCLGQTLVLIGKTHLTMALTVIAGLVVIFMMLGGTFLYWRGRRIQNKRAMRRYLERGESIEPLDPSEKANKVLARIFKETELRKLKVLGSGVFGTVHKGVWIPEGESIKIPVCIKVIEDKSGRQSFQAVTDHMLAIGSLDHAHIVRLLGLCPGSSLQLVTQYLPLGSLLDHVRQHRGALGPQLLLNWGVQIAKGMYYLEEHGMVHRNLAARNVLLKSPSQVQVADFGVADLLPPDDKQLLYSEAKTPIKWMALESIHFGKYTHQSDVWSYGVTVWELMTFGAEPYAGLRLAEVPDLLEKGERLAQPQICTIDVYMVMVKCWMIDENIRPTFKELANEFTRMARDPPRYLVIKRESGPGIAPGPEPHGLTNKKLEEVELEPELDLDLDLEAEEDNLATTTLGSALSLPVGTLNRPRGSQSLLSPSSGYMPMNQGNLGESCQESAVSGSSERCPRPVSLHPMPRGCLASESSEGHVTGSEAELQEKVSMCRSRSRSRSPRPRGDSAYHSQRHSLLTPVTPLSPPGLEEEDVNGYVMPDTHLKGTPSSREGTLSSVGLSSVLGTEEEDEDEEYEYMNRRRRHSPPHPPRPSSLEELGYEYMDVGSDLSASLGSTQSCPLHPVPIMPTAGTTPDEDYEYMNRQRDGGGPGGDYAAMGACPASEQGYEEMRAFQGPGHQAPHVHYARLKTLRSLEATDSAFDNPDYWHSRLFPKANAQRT

Measured: binding result

B1: wild type CCDC170 (Coiled-Coil Domain Containing 170) (other)
chain: MSLDCTSHIALGAASPAPEETYDHLSEVPVTREQLNHYRNVAQNARSELAATLVKFECAQSELQDLRSKMLSKEVSCQELKAEMESYKENNARKSSLLTSLRDRVQELEEESAALSTSKIRTEITAHAAIKENQELKKKVVELNEKLQKCSKENEENKKQVSKNCRKHEEFLTQLRDCLDPDERNDKASDEDLILKLRDLRKENEFVKGQIVILEETINVHEMEAKASRETIMRLASEVNREQKKAASCTEEKEKLNQDLLSAVEAKEALEREVKIFQERLLAGQQVWDASKQEVSLLKKSSSELEKSLKASQDAVTTSQSQYFSFREKIAALLRGRLSMTGSTEDTILEKIREMDSREESRDRMVSQLEAQISELVEQLGKESGFHQKALQRAQKAENMLETLQGQLTHLEAELVSGGVLRDNLNFEKQKYLKFLDQLSQKMKLDQMAAELGFDMRLDVVLARTEQLVRLESNAVIENKTIAHNLQRKLKTQKERLESKELHMSLLRQKIAQLEEEKQARTALVVERDNAHLTIRNLQKKVERLQKELNTCRDLHTELKAKLADTNELKIKTLEQTKAIEDLNKSRDQLEKMKEKAEKKLMSVKSELDTTEHEAKENKERARNMIEVVTSEMKTLKKSLEEAEKREKQLADFREVVSQMLGLNVTSLALPDYEIIKCLERLVHSHQHHFVTCACLKDVTTGQERHPQGHLQLLH
notes: Ectopically expressed in T47D cells and assayed in cell lysate; also called wtCCDC170; WT
no binding: all assays above

Source: US20230175069A1 (published 2023)
